# T1: bitter receptor mT2R5 (Mus musculus, UniProt Q9JKT4)
# T1 construct: expressed in transfected cells
# T1 sequence (Q9JKT4 1-300): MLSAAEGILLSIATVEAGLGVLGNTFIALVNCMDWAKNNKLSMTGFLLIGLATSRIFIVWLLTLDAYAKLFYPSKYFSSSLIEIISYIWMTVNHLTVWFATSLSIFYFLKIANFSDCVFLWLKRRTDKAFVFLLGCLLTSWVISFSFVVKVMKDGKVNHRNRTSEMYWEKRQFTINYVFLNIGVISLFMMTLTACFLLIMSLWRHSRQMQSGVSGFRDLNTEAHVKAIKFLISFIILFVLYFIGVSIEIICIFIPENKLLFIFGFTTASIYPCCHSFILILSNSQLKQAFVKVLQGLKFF
# T2: mouse olfactory receptor 17 (Mus musculus, UniProt Q9QWU6)
# T2 construct: expressed in transfected cells
# T2 sequence (Q9QWU6 1-327): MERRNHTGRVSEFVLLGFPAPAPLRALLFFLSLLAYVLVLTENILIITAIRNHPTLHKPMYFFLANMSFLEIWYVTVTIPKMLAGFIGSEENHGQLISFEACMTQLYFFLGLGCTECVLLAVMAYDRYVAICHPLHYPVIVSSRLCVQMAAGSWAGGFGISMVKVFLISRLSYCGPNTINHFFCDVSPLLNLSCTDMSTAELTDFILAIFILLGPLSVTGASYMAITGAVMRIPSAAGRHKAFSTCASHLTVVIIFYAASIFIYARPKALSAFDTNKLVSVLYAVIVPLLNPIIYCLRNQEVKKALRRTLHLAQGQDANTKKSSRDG
# Columns and labels:
# bitter receptor mT2R5 = molecular target: T1, bitter receptor mT2R5; experiment: Functional coupling of Gq variants with bitter taste receptor mT2R5 (mammalian cell-based systems and Xenopus oocytes, calcium imaging)
# Source text: (§1) The present invention addresses the above described problems associated with using Gα15/α16, as well as other problems known in the art relating to the use of weakly promiscuous Gα proteins. […] According to the invention, the functional coupling can be determined, for example, by measuring changes in intracellular IP3 or calcium. In a particular embodiment, the Gq protein variants can be expressed in mammalian cell lines or Xenopus oocytes, and then evaluated using calcium fluorescence imaging and electrophysiological recording.
# (§2) It was found by functional analysis using single-cell calcium imaging that activation of multi-family GPCRs evoked increases in cytosolic calcium in the presence of the Gαq variants with the G66D mutation. These GPCRs include Gαs-coupled β-adrenergic receptor, Gαolf-coupled mouse 17 olfactory receptor, Gαi-coupled m2 muscarinic receptor, and gustducin-coupled bitter receptor mT2R5. No significant change in cytosolic calcium could be detected by activation of the above GPCRs in the absence of the Gαq variants. Additional GPCRs can include those disclosed in U.S. patent application Ser. No. 09/510,332 filed Feb. 22, 2000 now abandoned; and U.S. Provisional Application Nos. 60/213,849 filed Jun. 23, 2000; 60/209,840 filed Jun. 6, 2000; 60/195,536 filed Apr. 7, 2000; 60/195,534 filed Apr. 7, 2000; 60/195,532 filed Apr. 7, 2000; which are herein incorporated by references for all purposes in a manner consistent with this disclosure.
# A series of Gαq protein variants having the sequences listed in FIG. 3 were constructed and tested in mammalian cell-based systems and in Xenopus oocytes for functional coupling efficiency with bitter receptor mT2R5 and mouse olfactory receptor 17.
# [1] = molecular target: T2, mouse olfactory receptor 17; experiment: Functional coupling of Gq variants with mouse olfactory receptor 17 (mammalian cell-based systems and Xenopus oocytes, calcium imaging); set-up: key to the marks not given beside the values
# Source text: as §1
# as §2, with “7, 2000; which are herein incorporated by references for all purposes in a manner consistent with this disclosure.” left out
Functional Activity With Taste Receptor MT2R5 (bitter receptor mT2R5),Functional Activity with Olfactory Receptor ml7 [1],Molecule
++,,"MGq (ΔN-HVD-HA)-t5: mouse Gαq ΔN-HVD-HA with C-terminal five amino acids replaced by those of transducin, SEQ ID NO:6 (protein, listed as Mus sp., HA tag; transducin C-terminal five residues) MACCLSEEAKEARRINDEIERHVRRDKRDARRELKLLLLGTGESGKSTFIKQMRIIHGSGYSDEDKRGFTKLVYQNIFTAMQAMIRAMDTLKIPYKYEHNKAHAQLVREVDVEKVSAFDVPDYAAIKSLWNDPGIQECYDRRREYQLSDSTKYYLNDLDRVADPSYLPTQQDVLRVRVPTTGIIEYPFDLQSVIFRMVDVGGQRSERRKWIHCFENVTSIMFLVALSEYDQVLVESDNENRMEESKALFRTIITYPWFQNSSVILFLNKKDLLEEKIMYSHLVDYFPEYDGPQRDAQAAREFILKMFVDLNPDSDKIIYSHFTCATDTENIRFVFAAVKDTILQLNLKDCGLF"
++,,"MGq (ΔN-HVD-HA)-t44: mouse Gαq ΔN-HVD-HA with C-terminal 44 amino acids of transducin, SEQ ID NO:7 (protein, listed as Mus sp., HA tag; transducin C-terminal 44 residues) MACCLSEEAKEARRINDEIERHVRRDKRDARRELKLLLLGTGESGKSTFIKQMRIIHGSGYSDEDKRGFTKLVYQNIFTAMQAMIRAMDTLKIPYKYEHNKAHAQLVREVDVEKVSAFDVPDYAAIKSLWNDPGIQECYDRRREYQLSDSTKYYLNDLDRVADPSYLPTQQDVLRVRVPTTGIIEYPFDLQSVIFRMVDVGGQRSERRKWIHCFENVTSIMFLVALSEYDQVLVESDNENRMEESKALFRTIITYPWFQNSSVILFLNKKDLLEEKIMYSHLVDYFPEYDGPQRDAQAAREFILKMFVDLNPDNMRRDVKEIYSHMTCATDTQNVKFVFDAVTDIIIKENLKDCGLF"

# More lines, now with the values behind:
Molecule,Functional Activity With Taste Receptor MT2R5 (bitter receptor mT2R5),Functional Activity with Olfactory Receptor ml7 [1]
"HGq: human Gαq protein, SEQ ID NO:15 (protein, listed as Homo sapiens) MTLESIMACCLSEEAKEARRINDEIERQLRRDKRDARRELKLLLLGTGESGKSTFIKQMRIIHGSGYSDEDKRGFTKLVYQNIFTAMQAMIRAMDTLKIPYKYEHNKAHAQLVREVDVEKVSAFENPYVDAIKSLWNDPGIQECYDRRREYQLSDSTKYYLNDLDRVADPAYLPTQQDVLRVRVPTTGIIEYPFDLQSVIFRMVDVGGQRSERRKWIHCFENVTSIMFLVALSEYDQVLVESDNENRMEESKALFRTIITYPWFQNSSVILFLNKKDLLEEKIMYSHLVDYFPEYDGPQRDAQAAREFILKMFVDLNPDSDKINYSHFTCATDTENIRFVFAAVKDTILQLNLKEYNAV",−,
"MGq (ΔN-HVD-HA)-olf5: mouse Gαq ΔN-HVD-HA with C-terminal five amino acids of Gαolf, SEQ ID NO:14 (protein, listed as Mus sp., HA tag; Gαolf C-terminal five residues) MACCLSEEAKEARRINDEIERHVRRDKRDARRELKLLLLGTGESGKSTFIKQMRIIHGSDYSDEDKRGFTKLVYQNIFTAMQAMIRAMDTLKIPYKYEHNKAHAQLVREVDVEKVSAFDVPDYAAIKSLWNDPGIQECYDRRREYQLSDSTKYYLNDLDRVADPSYLPTQQDVLRVRVPTTGIIEYPFDLQSVIFRMVDVGGQRSERRKWIHCFENVTSIMFLVALSEYDQVLVESDNENRMEESKALFRTIITYPWFQNSSVILFLNKKDLLEEKIMYSHLVDYFPEYDGPQRDAQAAREFILKMFVDLNPDSDKIIYSHFTCATDTENIRFVFAAVKDTILQLNLKQYELL",,++
"HGq (ΔN): human Gαq with truncation of N-terminal six amino acids, SEQ ID NO:16 (protein, listed as Homo sapiens) MACCLSEEAKEARRINDEIERQLRRDKRDARRELKLLLLGTGESGKSTFIKQMRIIHGSGYSDEDKRGFTKLVYQNIFTAMQAMIRAMDTLKIPYKYEHNKAHAQLVREVDVEKVSAFENPYVDAIKSLWNDPGIQECYDRRREYQLSDSTKYYLNDLDRVADPAYLPTQQDVLRVRVPTTGIIEYPFDLQSVIFRMVDVGGQRSERRKWIHCFENVTSIMFLVALSEYDQVLVESDNENRMEESKALFRTIITYPWFQNSSVILFLNKKDLLEEKIMYSHLVDYFPEYDGPQRDAQAAREFILKMFVDLNPDSDKIIYSHFTCATDTENIRFVFAAVKDTILQLNLKEYNAV",−,
"MGq (HV-HA)-t5: mouse Gαq HV-HA with C-terminal five amino acids of transducin, SEQ ID NO:12 (protein, listed as Mus sp., HA tag; transducin C-terminal five residues) MTLESIMACCLSEEAKEARRINDEIERHVRRDKRDARRELKLLLLGTGESGKSTFIKQMRIIHGSGYSDEDKRGFTKLVYQNIFTAMQAMIRAMDTLKIPYKYEHNKAHAQLVREVDVEKVSAFDVPDYAAIKSLWNDPGIQECYDRRREYQLSDSTKYYLNDLDRVADPSYLPTQQDVLRVRVPTTGIIEYPFDLQSVIFRMVDVGGQRSERRKWIHCFENVTSIMFLVALSEYDQVLVESDNENRMEESKALFRTIITYPWFQNSSVILFLNKKDLLEEKIMYSHLVDYFPEYDGPQRDAQAAREFILKMFVDLNPDSDKIIYSHFTCATDTENIRFVFAAVKDTILQLNLKDCGLF",+,
"MGq (HVD-HA)-t5: mouse Gαq HVD-HA with C-terminal five amino acids of transducin, SEQ ID NO:13 (protein, listed as Mus sp., HA tag; transducin C-terminal five residues) MTLESIMACCLSEEAKEARRINDEIERHVRRDKRDARRELKLLLLGTGESGKSTFIKQMRIIHGSDYSDEDKRGFTKLVYQNIFTAMQAMIRAMDTLKIPYKYEHNKAHAQLVREVDVEKVSAFDVPDYAAIKSLWNDPGIQECYDRRREYQLSDSTKYYLNDLDRVADPSYLPTQQDVLRVRVPTTGIIEYPFDLQSVIFRMVDVGGQRSERRKWIHCFENVTSIMFLVALSEYDQVLVESDNENRMEESKALFRTIITYPWFQNSSVILFLNKKDLLEEKIMYSHLVDYFPEYDGPQRDAQAAREFILKMFVDLNPDSDKIIYSHFTCATDTENIRFVFAAVKDTILQLNLKDCGLF",++,

# — US7041457B2, “Gαq protein variants and their use in the analysis and discovery of agonists and antagonists of chemosensory receptors” (Senomyx, Inc., priority 2000, dated 2006)
